From patent publication US7179889B2, “Propionicin T1 polypeptide, a bacteriocin from Propionibacterium thoenii” (Provisage As, priority 2001, dated 2007)
Entries after “also recorded” stand apart in the source; their conditions may differ.

What was measured:
Listeria monocytogenes = conditions: food-borne pathogen; cited from earlier work
[1] = stability of propionicin T1 (heat, acid, storage); assay type: physicochemical
Procedure: (§1) Bacteriocin assay. Antimicrobial activity was determined by a microtiter plate assay (8). Each well of the microtiter plate contained 50 μl of twofold serial dilutions in SLB or GM17 of the bacteriocin samples, and 150 μl of a 100-fold-diluted fresh overnight culture of the indicator strain. The plates were incubated at 30° C. for 24 to 48 hr, and growth inhibition of the indicator organisms was measured spectrophotometrically at 620 nm with a microtiter plate reader. One bacteriocin unit (BU) was defined as the amount of bacteriocin that inhibited the growth of the indicator organism by 50% as compared with a control culture without bacteriocin.
Stability of propionicin T1. The stability of the peptide was tested, by exposing the bacteriocin (0.3 M NaCl eluate from the cation exchange column) to temperatures of 60° C. and 100° C. for 15 min and to pH 2.5 for one hour. […] Thus, propionicin T1 is heat stable and acid stable.

[2] = tested on: Propionibacterium freudenreichii; experiment: overlay assay, ten strains of Propionibacterium freudenreichii; assay type: cell-based; conditions: bacteriocin
Procedure: (§2) Screening for antimicrobial activity. Colonies of strains of propionibacteria were grown on agar plates for 72 to 120 hr. A lawn of 5 ml GM17 soft agar containing 500 μl of a fresh culture of the indicator organisms was then poured over the plates. After incubation for 24 to 48 hr at 30° C., the colonies were examined for zones of growth inhibition.

[3] = tested on: all strains of Propionibacterium thoenii tested; experiment: inhibition spectrum of propionicin T1; assay type: cell-based
Procedure: as §2, §1

[4] = tested on: all strains of Propionibacterium acidipropionici tested; experiment: inhibition spectrum of propionicin T1; assay type: cell-based
Procedure: as §2, §1

[5] = tested on: all strains of Propionibacterium jensenii tested; experiment: inhibition spectrum of propionicin T1; assay type: cell-based
Procedure: as §2, §1

[6] = tested on: Lactobacillus sake NCDO 2714; experiment: overlay assay, zones of growth inhibition around producer colonies; assay type: cell-based; conditions: bacteriocin
Procedure: as §2

[7] = tested on: P. acidipropionici ATCC 4965; experiment: effect of the bacteriocin on the viability of sensitive cells; assay type: cell-based, Propionibacterium acidipropionici
Procedure: Effect of the bacteriocin on the viability of sensitive cells. Partially purified bacteriocin from P. thoenii 419 eluted in 0.3 M NaCl from an ion-exchange column was added in variable amounts to a 48 hr culture of P. acidipropionici grown in GM17, diluted 100-fold. Optical density at 620 nm and viable count (by dilution and plate counting) were determined at time intervals.
The effect of propionicin T1 on viability of sensitive cells. Several experiments were performed to show the effect of propionicin T1 on the viability of the indicator cells. Cultures of P. acidipropionici ATCC 4965 were exposed to different amounts of partially purified propionicin T1. […] More than 99% of the cells were killed after 40 hr (FIG. 2A). The same result was also obtained using 100 or 4000 BU/ml. […] This increase was followed by a decrease in optical density (FIG. 2B).

Molecule: pediocin PA1 (KYYGNGVTCGKHSCSVDWGKATTCIINNGAMAWATGGHQGNHKC; Bacteriocin pediocin PA-1; UniProt P29430 19-62, looked up) [antibacterial protein produced by Pediococcus acidilactici PAC1.0]
- activity against Listeria monocytogenes (Listeria monocytogenes): very active

Molecule: nisin
- activity against Listeria monocytogenes (Listeria monocytogenes): not very sensitive

B1: Propionicin T1: new bacteriocin isolated from Propionibacterium thoenii 419 and LMG 2792; prebacteriocin SEQ ID NO:11, N-terminal sequence SEQ ID NO:9 (protein, listed as Propionibacterium thoenii)
chain: MKKTLLRSGTIALATAAAFGASLAAAPSAMAVPGGCTYTRSNRDVIGTCKTGSGQFRIRLDCNNAPDKTSVWAKPKVMVSVHCLVGQPRSISFETK
- antimicrobial activity after heat exposure ([1]; 60° C. for 15 min, 0.3 M NaCl eluate from cation exchange column): No reduction in antimicrobial activity
- antimicrobial activity after heat exposure ([1]; 100° C. for 15 min, 0.3 M NaCl eluate from cation exchange column): No reduction in antimicrobial activity
- antimicrobial activity after acid exposure ([1]; pH 2.5 for one hour, 0.3 M NaCl eluate from cation exchange column): No reduction in antimicrobial activity
- bacteriocin activity after storage at room temperature ([1]; room temperature for 24 hr): no effect on the bacteriocin activity
- bacteriocin activity after freezing, thawing and storage ([1]; storage at 4° C. or −20° C. up to six months): no effect on the bacteriocin activity
- activity against Propionibacterium freudenreichii [2]: no activity; also recorded: no strains of P. freudenreichii were inhibited
- activity against Propionibacterium thoenii [3]: active
- activity against Propionibacterium acidipropionici [4]: active
- activity against Propionibacterium jensenii [5]: active
- activity against Lactobacillus sake NCDO 2714 [6]: active
- optical density (620 nm) of bacteriocin treated cultures ([7]; 100 or 1000 BU/ml culture, FIG. 2B): increase in the optical density for several hours after addition of bacteriocin
- cells killed, other bacteriocin amounts ([7]; 100 or 4000 BU/ml): same result
- viable count ([7]; after 4 hr, plate counting): reduction in viable count
- cells killed ([7]; after 40 hr, 1000 BU/ml culture, plate counting, partially purified): More than 99%
- mode of action on indicator cells ([7]; plate counting): bactericidal effect; also recorded: slow bactericidal mode of action
